Drawing on patent publication US20050037413A1, this text covers binding efficiency (relative, GST on the same matrix set, relative binding capacity (GST on the same matrix set and Percentage of ligand utilization (%) for three substances.

Assay [1] addresses glutathione Sepharose-4B. In words: pull-down from lysate with glutathione Sepharose-4B, SDS-PAGE densitometry, relative to GST on Sepharose-4B.
For assay [2], the target named is glutathione (GSH) immobilized on dendron-modified controlled pore glass, sample E1 (Fmoc-(3)acid dendron). Put plainly: pull-down from lysate with E1 beads, SDS-PAGE densitometry, relative to GST on E1.
For assay [3], the target named is glutathione (GSH) immobilized on dendron-modified controlled pore glass, sample E3 (Fmoc-(9)acid dendron). Put plainly: pull-down from lysate with E3 beads, SDS-PAGE densitometry, relative to GST on E3.
Assay [4] has as its target glutathione (GSH) immobilized on dendron-modified controlled pore glass, sample E1 (Fmoc-(3)acid dendron). Put plainly: GST captured on beads, sample weight adjusted to the same number of GSH, SDS-PAGE densitometry.
For assay [5], the target named is glutathione (GSH) immobilized on dendron-modified controlled pore glass, sample E3 (Fmoc-(9)acid dendron). The assay is described as above.

On to “GST-Munc-18 fragment (98 kDa) (from UniProt P08515 1-218)”, for which, in assay [1], the binding efficiency (relative, GST on the same matrix set at 100%) stood at 17%. For the same substance, the values for the relative binding capacity (GST on the same matrix set at 100%) in assay [2] and in assay [3] were 22% and 23%, respectively.

In the case of “GST-PX^p47 (41 kDa), GST fused to the PX domain of p47^phox (from UniProt P08515 1-218)”, the binding efficiency (relative, GST on the same matrix set at 100%) in assay [1] was 104%. The relative binding capacity (GST on the same matrix set at 100%) amounted to 92% in assay [2] and 85% in assay [3].

Consider “glutathione S-transferase (GST) (28 kDa) (from UniProt P08515 1-218) (enzyme)”, for which the figures for the Percentage of ligand utilization (%) in assay [4] and in assay [5] were 29% and 31%, respectively.
